In patent US20260109763A1 (DENALI THERAPEUTICS, published 2026):
Like-named read-outs stand apart in the source and are kept apart here.

B1: human PILRA G78 extracellular domain (recombinant hPILRA ECD) (receptor)
chain: QPSGSTGSGPSYLYGVTQPKHLSASMGGSVEIPFSFYYPWELATAPDVRISWRRGHFHGQSFYSTRPPSIHKDYVNRLFLNWTEGQKSGFLRISNLQKQDQSVYFCRVELDTRSSGRQQWQSIEGTKLSITQAVTTTTQRPSSMTTTWRLSSTTTTTGLRVTQGKRRSDSWHISLETA
notes: also called hPILRA G78

What was measured:
hNPDC1(35-181) = target: T1, hNPDC1(35-181) (human, UniProt Q9NQX5 35-181); assay: SPR (Biacore 8K): ligand injected over hPILRA ECD (300 nM) held by an anti-PILRA antibody captured on anti-human Fab; panel Ligand binding permitted, antibody not named
T1 construct: range 35-181; also called neural proliferation differentiation and control protein 1
T1 sequence (looked up): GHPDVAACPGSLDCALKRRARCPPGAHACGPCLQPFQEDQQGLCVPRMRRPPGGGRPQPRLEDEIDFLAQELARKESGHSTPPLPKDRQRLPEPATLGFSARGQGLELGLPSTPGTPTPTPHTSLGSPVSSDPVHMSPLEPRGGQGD

hPANP(76-178) = target: T2, hPANP(76-178) (human, UniProt Q8IYJ0 76-178); assay: as above
T2 construct: range 76-178; also called PIANP; PILRA-associated neural protein
T2 sequence (looked up): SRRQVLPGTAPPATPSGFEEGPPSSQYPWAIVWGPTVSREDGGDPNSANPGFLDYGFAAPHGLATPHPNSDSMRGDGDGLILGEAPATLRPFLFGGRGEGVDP

[1] = target: B1; assay: SPR
[2] = target: T3, human PILRA R78 extracellular domain (recombinant) (human, UniProt Q9UKJ1 20-197); assay: SPR
T3 construct: also called hPILRA R78
Target sequence in this assay (Q9UKJ1 20-197 limits assumed): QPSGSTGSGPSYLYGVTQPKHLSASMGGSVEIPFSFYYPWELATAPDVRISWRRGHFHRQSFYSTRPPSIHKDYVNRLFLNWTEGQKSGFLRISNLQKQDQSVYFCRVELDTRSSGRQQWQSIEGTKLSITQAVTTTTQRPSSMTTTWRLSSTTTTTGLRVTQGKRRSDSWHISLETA

[3] = target: T4, human PILRB extracellular domain (recombinant) (human, UniProt Q9UKJ0 20-191); assay: SPR
T4 construct: also called hPILRB
T4 sequence (Q9UKJ0 20-191 limits assumed): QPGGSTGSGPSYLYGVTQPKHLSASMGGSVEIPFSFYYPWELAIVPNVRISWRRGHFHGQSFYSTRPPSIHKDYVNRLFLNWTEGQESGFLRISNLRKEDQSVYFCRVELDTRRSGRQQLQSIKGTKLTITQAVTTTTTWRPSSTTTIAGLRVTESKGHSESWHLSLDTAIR

[4] = target: T5, cynomolgus monkey PILRA extracellular domain (recombinant) (cynomolgus monkey); assay: SPR
T5 construct: also called cynoPILRA; Cyno PILRA
T5 sequence (chain, as listed by the source limits assumed): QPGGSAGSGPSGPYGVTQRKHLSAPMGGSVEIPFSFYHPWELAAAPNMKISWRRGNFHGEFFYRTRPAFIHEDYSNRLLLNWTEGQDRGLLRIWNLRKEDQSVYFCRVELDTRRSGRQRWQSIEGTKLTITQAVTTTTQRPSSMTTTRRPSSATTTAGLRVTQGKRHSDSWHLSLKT

human PILRA G78 on cells [5] = target: T6, human PILRA G78 on cells (human, UniProt Q9UKJ1 20-303); assay: cell-based or functional assay
Target sequence in this assay (Q9UKJ1 20-303 R78G limits assumed): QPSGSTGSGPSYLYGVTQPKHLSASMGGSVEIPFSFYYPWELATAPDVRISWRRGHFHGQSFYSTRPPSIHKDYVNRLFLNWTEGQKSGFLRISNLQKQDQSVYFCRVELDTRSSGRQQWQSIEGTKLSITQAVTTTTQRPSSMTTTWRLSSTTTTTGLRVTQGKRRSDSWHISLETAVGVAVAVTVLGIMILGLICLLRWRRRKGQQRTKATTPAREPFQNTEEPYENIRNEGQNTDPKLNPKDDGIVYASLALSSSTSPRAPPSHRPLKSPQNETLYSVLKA

human PILRA R78 on cells [6] = target: T7, human PILRA R78 on cells (human, UniProt Q9UKJ1 20-303); assay: cell-based or functional assay
Target sequence in this assay (Q9UKJ1 20-303 limits assumed): as the sequence (Q9UKJ1 20-303 R78G limits assumed) above, with G59R counted along it

human PILRA G78 on cells [7] = target: T6, human PILRA G78 on cells; assay: flow cytometry on HEK293 cells expressing hPILRA G78
Target sequence in this assay (Q9UKJ1 20-303 R78G limits assumed): as the sequence (Q9UKJ1 20-303 R78G limits assumed) above

[8] = target: B1; assay: SPR, Biacore 8K; hPILRA ECD; antibody with wild-type Fc
Experimental: (§1) Antibodies were captured on Biacore™ Series S CM5 sensor chips immobilized with mouse anti-human Fab (human Fab capture kit from GE Healthcare) followed by injections of serial 3-fold dilutions of recombinant ECD reagents at a flow rate of 30 μL/min. Each sample was analyzed using a 3-minute association followed by a 10-minute dissociation. After each injection, the sensor chip was regenerated using a 5 0 mM glycine pH2.0 regeneration buffer. A 1:1 Languir model of simultaneous fitting of kₒₙ and koff was used for kinetics analysis.
Characterization for binding affinities of the humanized antibodies to hPILRA ECD were measured by SPR using a Biacore 8K instrument (Table 7).

human PILRA R78 on cells [9] = target: T7, human PILRA R78 on cells; assay: flow cytometry on PILRA R78 expressing HEK293 cells (FIG. 1F)
Experimental: (§2) PILRA G78 or R78 overexpressing HEK293 cells were stained with NucBlue Live cell stain for 30 mins at RT. […] Cell lines were run in duplicate to account for intra-variability, for a total of N=3. The same protocol was used for CHO-K1 cells expressing hPILRA G78.

human PILRA G78 on cells [10] = target: T6, human PILRA G78 on cells; assay: flow cytometry (MFI), CHO-K1 cells expressing hPILRA G78, Alexa Fluor 647 anti-human IgG
Experimental: as §2

human PILRA G78 on cells [11] = target: T6, human PILRA G78 on cells; assay: flow cytometry on HEK293 cells expressing hPILRA G78; remark: listed apart in the source
Target sequence in this assay (Q9UKJ1 20-303 R78G limits assumed): as above
Experimental: Parental HEK293 cells were labeled with NucBlue Live ReadyProbes Reagent for 30 mins. […] Antibody binding to the cells was detected by FACS and median fluorescence intensity (MFI) was derived from data analysis performed with the FLOJO software (FIGS. 1A-1C).

human PILRA G78 on cells [12] = target: T6, human PILRA G78 on cells; assay: flow cytometry on PILRA G78 expressing CHO-K1 cells (FIG. 1H)
Target sequence in this assay (Q9UKJ1 20-303 R78G limits assumed): as above
Experimental: as §2

human PILRA G78 on cells [13] = target: T6, human PILRA G78 on cells; assay: flow cytometry on HEK293 PILRA G78 cells with sialidase treatment
Experimental: (§3) PILRA 78G or PILRA 78R expressing HEK293 cells were treated with SialEXO (Genovis). […] It is a combination of two sialidases acting on α2-3, α2-6 and α2-8 linkages. […] Cells were then washed twice and incubated and stained with NucBlue Live Stain for 30 mins at RT.

human PILRA G78 on cells [14] = target: T6, human PILRA G78 on cells; assay: flow cytometry on HEK293 PILRA G78 cells without sialidase treatment
Experimental: as §3

human PILRA R78 on cells [15] = target: T7, human PILRA R78 on cells; assay: flow cytometry on HEK293 PILRA R78 cells with sialidase treatment; with sialidase treatment
Target sequence in this assay (Q9UKJ1 20-303 limits assumed): as the sequence (Q9UKJ1 20-303 R78G limits assumed) above, with G59R counted along it
Experimental: as §3
(§4) Following the same protocol, sialidase treatment was also performed on HEK cells expressing PILRA R78.

[16] = target: B1; assay: SPR, Biacore 8K; antibody captured via anti-human Fab, recombinant ECD injected; 1:1 fit;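 also: CM5 sensor chip, ECD analyte in threefold dilution series at 30 µL/min, 3 min association and 10 min dissociation, kon and koff fitted simultaneously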
Experimental: as §1

[17] = target: T3, human PILRA R78 extracellular domain …; assay: as above
Experimental: as §1

[18] = target: T4, human PILRB extracellular domain …; assay: as above
Experimental: as §1

[19] = target: T5, cynomolgus monkey PILRA extracellular …; assay: as above
Experimental: as §1

human PILRA G78 on cells [20] = target: T6, human PILRA G78 on cells; assay: flow cytometry on PILRA G78 expressing HEK293 cells (FIG. 1D); HEK293 cells expressing PILRA G78
Experimental: as §2

human PILRA R78 on cells [21] = target: T7, human PILRA R78 on cells; assay: flow cytometry on PILRA R78 expressing HEK293 cells (FIG. 1F); HEK293 cells expressing PILRA R78
Target sequence in this assay (Q9UKJ1 20-303 limits assumed): as the sequence (Q9UKJ1 20-303 R78G limits assumed) above, with G59R counted along it
Experimental: as §2

human PILRA R78 on cells [22] = target: T7, human PILRA R78 on cells; assay: flow cytometry on HEK293 PILRA R78 cells without sialidase treatment; without sialidase treatment
Target sequence in this assay (Q9UKJ1 20-303 limits assumed): as the sequence (Q9UKJ1 20-303 R78G limits assumed) above, with G59R counted along it
Experimental: as §3, §4

human PILRA G78 on cells [23] = target: T6, human PILRA G78 on cells; assay: cell-based or functional assay; remark: listed apart in the source
Target sequence in this assay (Q9UKJ1 20-303 R78G limits assumed): as the sequence (Q9UKJ1 20-303 R78G limits assumed) above

[24] = target: T4, human PILRB extracellular domain …; assay: SPR, Biacore 8K, recombinant ECD
Experimental: as §1

human PILRA R78 on cells [25] = target: T7, human PILRA R78 on cells; assay: flow cytometry on PILRA R78 expressing HEK293 cells (FIG. 1F); flow cytometry titration on HEK293 cells overexpressing PILRA R78
Experimental: as §2

human PILRB on cells = target: T8, human PILRB on cells (human, UniProt Q9UKJ0 20-227); assay: flow cytometry on hPILRB-DAP12 OE HEK293 cells
T8 construct: Expressed on CHO-K1 cells, or together with DAP12 on HEK293 cells (hPILRB-DAP12 OE HEK293); also called hPILRB; hPILRB-DAP12
T8 sequence (Q9UKJ0 20-227 limits assumed): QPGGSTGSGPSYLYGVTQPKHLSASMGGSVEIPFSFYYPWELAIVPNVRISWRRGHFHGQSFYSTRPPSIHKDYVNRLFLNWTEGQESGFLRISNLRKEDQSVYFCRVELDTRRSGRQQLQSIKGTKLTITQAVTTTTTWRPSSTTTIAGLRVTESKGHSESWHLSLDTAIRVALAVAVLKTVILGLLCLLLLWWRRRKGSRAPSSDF
Experimental: Human PILRB-DAP12 OE HEK293 cells were stained with NucBlue Live cell stain for 30 mins at RT. […] Cell lines were run in duplicates to account for intra-variability, for a total of N=3.

Binder: B1
- binding result (hNPDC1(35-181)): binds
- binding result (hPANP(76-178)): binds

B2: Anti-PILRA antibody clone 35 (antibody, V domains shown)
VH: EVQLVQSGAEVKKPGASVKVSCKASGYTFTEYYMYWVRQAPGQGLELIGRIDPEDGGTDYVEKFKNRATLTADTSTSTAYLELSSLRSEDTAVYFCASTIRGTVFVYWGQGTLVTVSS
VL: DIQMTQSPSSLSASVGDRVTITCRPSEDIYNGLAWYQQKPGKSPKLLIYNANSLHTGVPSRFSGSGSGTDYTLTISSLQPEDFATYFCQQYYDYPLTFGQGTKVEIK
notes: Humanized; also called Ab.35
- Kd [1]: 1.4 nM
- Kd [2]: 25 nM
- Kd [3]: 150 nM
- Kd [4]: 5.3 nM
- pSTAT3 S727 induction, EC50 (nM) (human PILRA G78 on cells [5]): 23 nM
- pSTAT3 S727 induction, Fold Over Background (human PILRA G78 on cells [5]): 28.9 fold
- pSTAT3 Y705 induction, EC50 (nM) (human PILRA G78 on cells [5]): 11.4 nM
- pSTAT3 Y705 induction, Fold Over Background (human PILRA G78 on cells [5]): 35.5 fold
- pSTAT3 S727 induction, EC50 (nM) (human PILRA R78 on cells [6]): 10.6 nM
- pSTAT3 S727 induction, Fold Over Background (human PILRA R78 on cells [6]): 30.1 fold
- pSTAT3 Y705 induction, EC50 (nM) (human PILRA R78 on cells [6]): 6.19 nM
- pSTAT3 Y705 induction, Fold Over Background (human PILRA R78 on cells [6]): 41 fold
- EC50 (human PILRA G78 on cells [7]): 12.8 nM
- Kd [8]: 1.71 nM
- EC50 (human PILRA R78 on cells [9]): 3.1 nM
- EC50 (read off the curve) (human PILRA G78 on cells [10]): ~10 nM

B3: Anti-PILRA antibody clone 7 (antibody, V domains shown)
VH: EVQLQQSGPELQRPGASVKLSCKASGYTFTEYYMYWVKQRPKQGLELMGRIDPEDGGTDYVEKFKNKATLTADTSSNTAYMQLSSLTSEDTATYFCASTIRGTVFVYWGQGTLVTVSS
VL: DIQMTQSPASLSASLGETVTIECRPSEDIYNGLAWYQQKPGESPQLLIYNANSLHTGVPSRFSGSGSGTQYSLKINSLQSEDVASYFCQQYYDYPLTFGSGTKLEIK
- pSTAT3 S727 induction, EC50 (nM) (human PILRA G78 on cells [5]): 18.6 nM
- pSTAT3 S727 induction, Fold Over Background (human PILRA G78 on cells [5]): 26.6 fold
- pSTAT3 Y705 induction, EC50 (nM) (human PILRA G78 on cells [5]): 13 nM
- pSTAT3 Y705 induction, Fold Over Background (human PILRA G78 on cells [5]): 32.5 fold
- pSTAT3 S727 induction, EC50 (nM) (human PILRA R78 on cells [6]): 10.7 nM
- pSTAT3 S727 induction, Fold Over Background (human PILRA R78 on cells [6]): 28.9 fold
- pSTAT3 Y705 induction, EC50 (nM) (human PILRA R78 on cells [6]): 5.38 nM
- pSTAT3 Y705 induction, Fold Over Background (human PILRA R78 on cells [6]): 38.3 fold
- EC50 (human PILRA G78 on cells [11]): 13 nM
- EC50 (human PILRA G78 on cells [12]): 10 nM
- EC50 (human PILRA G78 on cells [13]): 3.2 nM
- EC50 (human PILRA G78 on cells [14]): 9.5 nM
- EC50 (human PILRA R78 on cells [15]): 0.3 nM
- Kd [16]: 1.2 nM
- Kd [17]: 17 nM
- Kd [18]: 250 nM
- Kd [19]: 4.8 nM
- EC50 (human PILRA G78 on cells [20]): 12.9 nM
- EC50 (human PILRA R78 on cells [21]): 2.5 nM
- EC50 (human PILRA R78 on cells [22]): 0.7 nM

B4: Anti-PILRA antibody clone 2 (antibody, human IgG1, kappa, L234A L235A, V domains shown)
VH: EVQLVESGGGLVQPGRSLRLSCAVSGFTFDDYAMHWVRQAPGKGLEWVSGFSWNSGSIGYPDSVKGRFTISRDNAKNSLYLQMNSLRAEDTAFYYCAKDKSISAAGRFDYWGQGTLVTVSS
VL: DIQMTQSPSSLSASVGDRVTITCQASRRINNYLNWYQQKPGKAPKLLIYDASNLETGVPSRFTGSGSGTDFTLTISSLQPEDIATYYCQQYDNLPLTFGGGTKVEIKR
notes: also called Ab; Clone 2; Ab.2
- pSTAT3 Y705 induction, EC50 (nM) (human PILRA G78 on cells [23]): 1.45 nM
- pSTAT3 Y705 induction, Fold Over Background (human PILRA G78 on cells [23]): 16 fold
- binding result [24]: no binding
- EC50 (human PILRA G78 on cells [11]): 12.5 nM
- Kd [16]: 0.69 nM
- Kd [17]: 270 nM
- Kd [19]: 1.7 nM
- EC50 (human PILRA R78 on cells [25]): 5.1 nM

B5: PILRB binding positive control antibody (antibody, human IgG1, kappa, L234A L235A, V domains shown)
VH: QVQLQESGPGLVKPSGTLSLTCAVSGGSISSNHWWSWVRQPPGKGLEWIGEIYHYGTTDYNPSLQSRVTISVDKSKNQFSLKLTSVTAADTAVYFCARGLRDYYYYMDVWGKGTTVTVSS
VL: DIQMTQSPSSLSASVGDRVTITCRASQTISSYLNWYQQKPGKAPKLLIYAASSLQSGVPSRFSGSGFGTDFTLTISSLQPEDFATYYCQQSYSIPLTFGGGTKVEIKR
- EC50 (human PILRB on cells): 1.2 nM
